Measured values taken from the RNAGym collection of RNA variant scans (doi:10.1021/acssynbio.7b00057).

B1: Pistol ribozyme (parent)
chain: GGGUCGUUGUUCCAUAAUCGCGUGGAUAUGGCACGCAAGUUUCUACCGGGCACCGUAAAUGUCCGACUGGAGCCGUUCGGGCGGCUAUAAACAGACCUCAGGCCCGAAGCGUGGCGGCACCUGCCGCCGGUGGUAAAAAAGAUCGGAAGAGCACACGUCU

Variants of: B1
Assay: aptazyme ON/OFF ratio, guanine; higher = stronger switching; co-transcriptional cleavage with and without guanine

Variant | aptazyme ON/OFF ratio
U7C G9U U10A U11G C12A C13U | 1.18
U7C G9U U10A U11G C12A C13A | 1.05
U7C G9U U11A C12A | 1.36
U7C G9U U11A C12U | 1.39
U7C G9U U11A C12G | 1.33
U7C G9U U10C U11C C13A | 1
U7C G9U U10C U11C C13G | 1.06
U7C G9U U10C U11C C13U | 1
U7C G9U U10A C12U | 1.37
U7C G9U U10A C12G | 1.47
U7C G9U U10A C12A | 1.82
U7C G9C U10G U11G C12U C13A | 1.07
U7C G9C U10G U11G C12U C13U | 1.12
U7C G9C U10G U11G C12U C13G | 1.13
U7C G9U U10G C13U | 1.37
U7C G9U U10G C13G | 1.06
U7C G9U U10G C13A | 1.25
U7C G9U U10C C12U | 1.09
U7C G9U U10C C12A | 1.1
U7C G9U U10C C12G | 1.09
U7C G9U U10A U11G C12G | 1.19
U7C G9U U10A U11G C12U | 1.3
U7C G9U U10A U11G C12A | 1.08
U7C G9U U10C U11C C12G C13A | 1.03

Variant | aptazyme ON/OFF ratio
U7C G9U U10C U11C C12G C13G | 1.03
U7C G9U U10C U11C C12G C13U | 1.02
U7C G9C U11G C12G | 1.13
U7C G9C U11G C12A | 1.01
U7C G9C U11G C12U | 1.08
U7C G9U U11A C12U C13A | 1.32
U7C G9U U11A C12U C13G | 1.14
U7C G9U U11A C12U C13U | 1.2
U7C G9U U10C U11G C12A C13U | 1.11
U7C G9U U10C U11G C12A C13G | 1.1
U7C G9U U10C U11G C12A C13A | 1.11
U7C G9U U10A C12U C13G | 1.11
U7C G9U U10A C12U C13U | 1.22
U7C G9U U10A C12U C13A | 1.15
U7C G9C U11A C12A C13U | 1.04
U7C G9C U11A C12A C13G | 1.07
U7C G9C U11A C12A C13A | 1.08
U7C G9U U10C C12U C13A | 1.08
U7C G9U U10C C12U C13U | 1.08
U7C G9U U10C C12U C13G | 1.05
U7C G9U U10C C12G C13G | 1.06
U7C G9U U10C C12G C13U | 1.07
U7C G9U U10C C12G C13A | 1.05
U7C G9U U10G | 1.38

Variant | aptazyme ON/OFF ratio
U7C G9U U10A | 1.32
U7C G9U U10C | 2.79
U7C G9U U10A C13A | 1.18
U7C G9U U10A C13U | 1.22
U7C G9U U10A C13G | 1.04
U7C G9U U10G U11A C12U C13G | 1.1
U7C G9U U10G U11A C12U C13A | 1.19
U7C G9U U10G U11A C12U C13U | 1.1
U7C G9U U10A U11G C12G C13U | 1.16
U7C G9U U10A U11G C12G C13A | 1.1
U7C G9U U10A U11G C12G C13G | 1.14
U7C G9U U10A C12G C13G | 1.13
U7C G9U U10A C12G C13U | 1.27
U7C G9U U10A C12G C13A | 1.24
U7C G9U U10A U11A C12G C13G | 1.19
U7C G9U U10A U11A C12G C13A | 1.17
U7C G9U U10A U11A C12G C13U | 1.2
U7C G9U U10G C12U C13A | 1.2
U7C G9U U10G C12U C13G | 1.15
U7C G9U U10G C12U C13U | 1.69
U7C G9U U10C U11A | 1.11
U7C G9U U10C U11C | 1.05
U7C G9U U10C U11G | 1.18
U7C G9U U10G U11A C13A | 1.09

Variant | aptazyme ON/OFF ratio
U7C G9U U10G U11A C13G | 1.06
U7C G9U U10G U11A C13U | 1.06
U7C G9U U11C C12A | 1.26
U7C G9U U11C C12G | 1.08
U7C G9U U11C C12U | 1.16
U7C G9C U11C C12A C13G | 1.02
U7C G9C U11C C12A C13U | 1.05
U7C G9C U11C C12A C13A | 1.02
U7C G9U U10G U11A C12A C13G | 1.13
U7C G9U U10G U11A C12A C13A | 1.2
U7C G9U U10G U11A C12A C13U | 1.44
U7C G9C U10G U11C C12A | 1.19
U7C G9C U10G U11C C12U | 1.11
U7C G9C U10G U11C C12G | 1.25
U7C G9U C12U C13U | 1.12
U7C G9U C12U C13A | 1.12
U7C G9U C12U C13G | 1.1
U7C G9U U10G C12A C13G | 1.13
U7C G9U U10G C12A C13A | 1.09
U7C G9U U10G C12A C13U | 1.24
U7C G9C U11G C12A C13U | 1.07
U7C G9C U11G C12A C13A | 1.05
U7C G9C U11G C12A C13G | 1.06
U7C G9C U10G U11C C12U C13A | 1.12

Variant | aptazyme ON/OFF ratio
U7C G9C U10G U11C C12U C13U | 1.16
U7C G9C U10G U11C C12U C13G | 1.05
U7C G9U U10A U11C C12U C13U | 1.29
U7C G9U U10A U11C C12U C13G | 1.03
U7C G9U U10A U11C C12U C13A | 1.23
U7C G9U U10G U11C C12A C13A | 1.17
U7C G9U U10G U11C C12A C13U | 1.17
U7C G9U U10G U11C C12A C13G | 1.17
U7C G9U U10G C12G | 1.12
U7C G9U U10G C12A | 1.21
U7C G9U U10G C12U | 1.39
U7C G9U U10A U11A C12A C13U | 1.18
U7C G9U U10A U11A C12A C13G | 1.1
U7C G9U U10A U11A C12A C13A | 1.3
U7C G9U U10G U11C C12U | 1.14
U7C G9U U10G U11C C12A | 1.2
U7C G9U U10G U11C C12G | 1.09
U7C G9C U11C C12U C13A | 1.05
U7C G9C U11C C12U C13G | 1.03
U7C G9C U11C C12U C13U | 1.03
U7C G9U U10G U11G C12G | 1.14
U7C G9U U10G U11G C12U | 1.16
U7C G9U U10G U11G C12A | 1.22
U7C G9C U11A C12U C13G | 1.03

Variant | aptazyme ON/OFF ratio
U7C G9C U11A C12U C13U | 1.05
U7C G9C U11A C12U C13A | 1.02
U7C G9C U11A C13A | 1.03
U7C G9C U11A C13U | 1.02
U7C G9C U11A C13G | 1.04
U7C G9C U11C | 1.03
U7C G9C U11A | 1.03
U7C G9C U11G | 1.06
U7C G9U U10C U11A C12G C13U | 1.15
U7C G9U U10C U11A C12G C13A | 1.19
U7C G9U U10C U11A C12G C13G | 1.23
U7C G9U C12A C13A | 1.18
U7C G9U C12A C13G | 1.08
U7C G9U C12A C13U | 1.19
U7C G9C U10G U11G C12G C13A | 1.08
U7C G9C U10G U11G C12G C13G | 1.11
U7C G9C U10G U11G C12G C13U | 1.09
U7C G9U U10A C12A C13G | 1.14
U7C G9U U10A C12A C13U | 1.36
U7C G9U U10A C12A C13A | 1.37
U7C G9C U10G U11G C12U | 1.07
U7C G9C U10G U11G C12G | 1.12
U7C G9C U10G U11G C12A | 1.11
U7C G9U U10G U11G C12A C13G | 1.1

Variant | aptazyme ON/OFF ratio
U7C G9U U10G U11G C12A C13A | 1.1
U7C G9U U10G U11G C12A C13U | 1.17
U7C G9U U11G | 1.35
U7C G9U U11A | 1.41
U7C G9U U11C | 1.12
U7C G9U U10G U11C C13G | 1.06
U7C G9U U10G U11C C13A | 1.28
U7C G9U U10G U11C C13U | 1.07
U7C G9U U10A U11G C12U C13U | 1.18
U7C G9U U10A U11G C12U C13G | 1.11
U7C G9U U10A U11G C12U C13A | 1.09
U7C G9U U10C U11C C12U | 1.02
U7C G9U U10C U11C C12A | 1.06
U7C G9U U10C U11C C12G | 1.02
U7C G9U U10G U11C C12G C13U | 1.12
U7C G9U U10G U11C C12G C13A | 1.06
U7C G9U U10G U11C C12G C13G | 1.11
U7C G9U U10C U11G C12U C13A | 1.14
U7C G9U U10C U11G C12U C13G | 1.15
U7C G9U U10C U11G C12U C13U | 1.16
U7C G9U U10C C13A | 1.04
U7C G9U U10C C13U | 1.5
U7C G9U U10C C13G | 1.06
